Assay results from US20220401537A1.

Target: recombinant human ROR1 ectodomain containing a C-terminal Avi tag, biotinylated (human) (UniProt Q01973)
Experiment: cell-based or functional assay

Chain of UniProt Q01973 (Q01973 30-406): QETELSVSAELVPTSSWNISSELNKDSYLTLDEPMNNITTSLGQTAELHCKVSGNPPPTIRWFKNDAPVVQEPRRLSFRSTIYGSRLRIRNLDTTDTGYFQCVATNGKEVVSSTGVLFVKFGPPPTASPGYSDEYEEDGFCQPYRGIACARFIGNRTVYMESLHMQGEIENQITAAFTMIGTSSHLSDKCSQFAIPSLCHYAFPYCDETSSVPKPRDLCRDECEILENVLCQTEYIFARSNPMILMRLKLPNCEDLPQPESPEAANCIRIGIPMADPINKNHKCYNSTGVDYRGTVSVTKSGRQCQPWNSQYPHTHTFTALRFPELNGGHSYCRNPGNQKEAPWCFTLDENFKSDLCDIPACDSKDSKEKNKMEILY

fraction of CAR T cells activated (Ca2+ mobilization, Fluo-4) during 20 minutes on a ROR1-containing bilayer: < 10%
Substance: ROR1-specific 4-1BB/CD3ζ CAR backbone containing a StrepTag II (STII) sequence and two G4S linkers inserted between the R12 scFv and IgG4 hinge (from UniProt P10747 153-179; Q07011 214-255; P20963 52-163)
